Test results as given in patent publication US20090123479A1 (published 2009).

T1: recombinant human IL-23 (human, UniProt Q9NPF7 20-189; P29460 23-328)
T1 construct: also called hIL-23
T1 sequence 1: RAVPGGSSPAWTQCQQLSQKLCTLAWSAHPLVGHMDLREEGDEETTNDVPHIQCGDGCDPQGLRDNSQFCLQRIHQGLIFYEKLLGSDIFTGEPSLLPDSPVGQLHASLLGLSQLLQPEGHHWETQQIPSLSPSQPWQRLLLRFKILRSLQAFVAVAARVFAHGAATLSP
T1 sequence 2: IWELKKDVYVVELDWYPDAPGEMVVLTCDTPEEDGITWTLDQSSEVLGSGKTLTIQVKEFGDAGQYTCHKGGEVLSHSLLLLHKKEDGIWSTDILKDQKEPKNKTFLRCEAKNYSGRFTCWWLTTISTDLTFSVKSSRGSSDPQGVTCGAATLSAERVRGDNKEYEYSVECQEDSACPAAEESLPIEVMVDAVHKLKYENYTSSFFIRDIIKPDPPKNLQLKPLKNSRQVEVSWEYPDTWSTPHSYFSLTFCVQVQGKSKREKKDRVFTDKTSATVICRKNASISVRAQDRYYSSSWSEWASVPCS

T2: Endogenous human IL-23 (human, UniProt Q9NPF7 20-189; P29460 23-328)
T2 construct: also called endogenous human IL-23 from stimulated dendritic cells
T2 sequence 1: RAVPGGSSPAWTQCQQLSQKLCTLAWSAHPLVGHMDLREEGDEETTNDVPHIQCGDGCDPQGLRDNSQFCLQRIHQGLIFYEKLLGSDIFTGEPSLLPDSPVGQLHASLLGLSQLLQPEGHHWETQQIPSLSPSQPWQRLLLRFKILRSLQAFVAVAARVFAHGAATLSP
T2 sequence 2: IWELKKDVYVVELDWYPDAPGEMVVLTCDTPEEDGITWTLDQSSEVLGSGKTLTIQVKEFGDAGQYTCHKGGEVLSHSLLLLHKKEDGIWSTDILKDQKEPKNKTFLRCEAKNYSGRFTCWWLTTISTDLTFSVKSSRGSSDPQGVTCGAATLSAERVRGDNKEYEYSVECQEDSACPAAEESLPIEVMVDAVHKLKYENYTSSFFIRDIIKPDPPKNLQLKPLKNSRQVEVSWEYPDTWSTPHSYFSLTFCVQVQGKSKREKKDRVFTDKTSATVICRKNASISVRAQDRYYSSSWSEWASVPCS


How the values were obtained:
[1] = target: T1, recombinant human IL-23; assay: SPR (Biacore T100), purified antibody captured on anti-human IgG, IL-23 analyte (different source of IL-23), 1:1 model
Description: Biacore analysis was carried out using a capture surface on a CM5 chip. Anti-human IgG (BR-1008-39) was used as the capturing agent. Anti-human IgG was coupled to a CM5 biosensor chip by primary amine coupling. Humanized antibody was captured on this immobilised surface and defined concentrations of IL-23 were passed over this captured surface. An injection of buffer over the captured antibody surface was used for double-referencing. […] T100 Biacore machine was used to generate the data; all runs were carried out at 25° C. using HBS EP. Data was analysed using the software inherent to the machine and fitted to the 1:1 model of binding. Tables 7 and 8 detail the IL-23 binding analysis carried out on the 8C92H6.HC1LC1 chimera and selected humanized variants in two separate experiments. Data presented in Tables 7 and 8 are from purified antibody samples. The data shown for the humanized variants is representative of a number of runs. The chimeric mAb (8C9H6.HC1LC1) was only run once in each experiment, so data shown for this mAb is from that one run.

[2] = target: T2, Endogenous human IL-23; assay: receptor inhibition ELISA: plate coated with recombinant human IL-23 receptor, endogenous human IL-23 at 3.5 ng/ml pre-incubated with titrated purified antibody, bound IL-23 detected with biotinylated anti-human IL-12; 1% BSA
Description: Recombinant human IL-23 Receptor (R&D systems 1400-IR-050) was coated onto 96 well plates at a concentration of 1 μg/ml. Endogenous human IL-23 at 3.5 ng/ml final, was pre incubated for 1 hour with a titration of purified antibody material before being added to the pre-coated plates. Detection was performed with biotinylated anti-human 1L12 (R&D systems BAF-219) followed by Streptavidin-HRP (GE Healthcare RPN 4401). This neutralisation ELISA used 1% BSA.

[3] = target: T1, recombinant human IL-23; assay: SPR (Biacore T100), purified material captured on Protein A or anti-human IgG, IL-23 analyte at 256, 64, 16, 4, 1 nM
Description: (§1) Protein A or an anti-human IgG (Biacore BR-1008-39) was immobilised on a Biacore CM5 chip by primary amine coupling in accordance with the manufacturer's instructions. Anti IL-23 antibodies were captured on this surface and after a period of stabilisation, […] was passed over the antibody captured surface and a binding sensorgram was obtained. […] All runs were double referenced with a buffer injection over the captured antibody surface. Data was analysed using the 1:1 model using the software inherent to the Biacore 3000 or T100 depending upon which machine was used to generate kinetics. Analysis was carried out at 25° C. using HBS-EP buffer. Data presented in Tables 3-6 are on tissue culture supernatants of CHO cells transiently expressing the antibody of interest unless otherwise indicated. Data was generated using concentrations of IL-23 (256, 64, 16, 4, 1 and 0.25 nM) The data shown for the humanized variants is representative of a number of runs, The chimeric mAb (8C9H6.HC1LC1) was only run once in each experiment, so data shown for this mAb is from that one run, […]

[4] = target: T1, recombinant human IL-23; assay: SPR (Biacore T100), CHO supernatant antibody captured on Protein A or anti-human IgG, IL-23 analyte at 10 concentrations 128-0.25 nM
Description: as §1, with “indicated.” for “indicated. Data was generated using concentrations of IL-23 (256, 64, 16, 4, 1 and 0.25 nM) The data shown for the humanized variants is representative of a number of runs, The chimeric mAb (8C9H6.HC1LC1) was only run once in each experiment, so data shown for this mAb is from that one run,”

Kd [1]	koff [1]	kon [1]	IC50 (read off the curve) [2]	Kd [3]	koff [3]	kon [3]	Kd [4]	koff [4]	kon [4]	Binder
190 pM	0.00024 s⁻¹	1.27e+06 M⁻¹ s⁻¹	~0.005 µg/mL	–	–	–	–	–	–	A3M0 (antibody, human IgG1, kappa, V domains shown, Full length chains; also called humanized mAb A3M0) VH: QVQLVQSGAEVKKPGSSVKVSCKASGYTFTSYGITWVRQAPGQGLEWMGENYPRSGNTYYNEKFKGRVTITADKSTSTAYMELSSLRSEDTAVYYCARSEFISTVVAPYYYALDYWGQGTLVTVSS VL: DIVMTQSPDSLAVSLGERATINCKASKKVTIFGSISALHWYQQKPGQPPKLIYNGAKLESGVPDRFSGSGSGTDFTLTISSLQAEDVAVYYCLQNKEVPYTFGGGTKVEIKR
364 pM	0.000337 s⁻¹	925000 M⁻¹ s⁻¹	~0.1 µg/mL	2200 pM	0.00043 s⁻¹	200000 M⁻¹ s⁻¹	910 pM	0.00029 s⁻¹	320000 M⁻¹ s⁻¹	chimeric 8C92H6 HC1LC1 (antibody, V domains shown, Murine variable regions with human constant regions; also called 8C92H6.HC1LC1 Chimera; 8C9 chimera) VH: QVQLQQSGAELARPGTSVKLSCKASGYTFTSYGITWVKQRTGQGLEWIGENYPRSGNTYYNEKFKGKATLTADKSSSTAYMELRSLTSEDSAVYFCARCEFISTVVAPYYYALDYWGQGTSLVTVS VL: DIVLTQSPASLAVSLGQKATISCKASKKVTIFGSISALHWYQQKPGQPPKLIYNGAKLESGVSARFSDSGSQNRSPFGNQLSFTLTIDPVEADDAATYYCLQNKEVPYTFGGGTKLEIKR
